According to publication doi:10.1101/2020.06.10.144725 (bioRxiv, 2020):

How the values were obtained:
[1] = target: Lip-NKD-HisC (lipoyl domain-tagged HisC of NKD1) (human (identical sequence in mouse and human)) (UniProt Q969G9); assay: SEC
[2] = target: Lip-NKD-HisC (lipoyl domain-tagged HisC of NKD1) (human (identical sequence in mouse and human)) (UniProt Q969G9); assay: co-aggregation assay
[3] = target: the molecule itself; assay: SEC-MALS
[4] = target: T1, Lip-DVL2-PDZ (human, UniProt O14641 285-373); assay: ITC
T1 sequence: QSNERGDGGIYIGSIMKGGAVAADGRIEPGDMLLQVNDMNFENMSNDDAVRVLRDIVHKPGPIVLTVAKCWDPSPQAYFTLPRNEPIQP

Lip-NKD-HisC (lipoyl domain-tagged HisC of NKD1) (human (identical sequence in mouse and human)), sequence (Q969G9 whole entry, the tested form may be a part): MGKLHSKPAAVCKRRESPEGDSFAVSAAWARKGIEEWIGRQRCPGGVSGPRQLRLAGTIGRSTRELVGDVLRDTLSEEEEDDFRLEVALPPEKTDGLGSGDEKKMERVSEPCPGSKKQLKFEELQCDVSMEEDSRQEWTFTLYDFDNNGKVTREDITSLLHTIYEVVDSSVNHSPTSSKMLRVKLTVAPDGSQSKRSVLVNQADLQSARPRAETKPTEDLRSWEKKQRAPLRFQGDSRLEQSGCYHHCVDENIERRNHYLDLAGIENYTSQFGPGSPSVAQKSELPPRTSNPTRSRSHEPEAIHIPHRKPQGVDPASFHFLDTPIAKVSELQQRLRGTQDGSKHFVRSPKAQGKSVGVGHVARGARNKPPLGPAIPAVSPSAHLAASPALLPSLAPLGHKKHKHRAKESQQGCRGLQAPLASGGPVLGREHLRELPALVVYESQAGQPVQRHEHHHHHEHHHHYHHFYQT

Lip-NKD-HisC (lipoyl domain-tagged HisC of NKD1) (from UniProt Q969G9 1-470) (domain or fragment)
stoichiometry N [1]: 15 to 25

MBP-Axin1-HisC (from UniProt O15169 1-862) (domain or fragment)
molecules per core (molecules per core) [2]: < 5

MBP-Axin2-HisC (domain or fragment)
molecules per core (molecules per core) [2]: < 4

MBP-NKD-HisC (maltose-binding protein-tagged HisC of NKD1) (from UniProt Q969G9 1-470) (domain or fragment)
stoichiometry N [2]: 10

B1: RFP-NKD1-EF (domain or fragment)
chain: EPCPGSKKQLKFEELQCDVSMEEDSRQEWTFTLYDFDNNGKVTREDITSLLHTIYEVVDSSVNHSPTSSKMLRVKLTVAPD
stoichiometry N [3]: 2
Kd [4]: 3.2 ± 0.2 µM
